Test results reported in patent US20170037111A1, “Novel peptides and combination of peptides for use in immunotherapy against ovarian cancer and other cancers” (immatics biotechnologies GmbH, priority 2015, published 2017).

Molecular target: HLA-A*02:01 (Homo sapiens, UniProt P04439, D140Y/D185E/D98H/E176V/E277Q/G131W/G231S/I119V/I121R/I166T/I218V/L300P/L318F/N151K/N90K/P208A/P217A/Q86G/Q94H/R138H/R169H/T345S)
Assay: MHC binding assay (UV-ligand exchange, β2m ELISA, peptide exchange yield)
Details: MHC class I binding score; binding to HLA-A*02:01 ranged by peptide exchange yield (UV-ligand exchange, β2m ELISA)
Description: Candidate peptides for T cell based therapies according to the present invention were further tested for their MHC binding capacity (affinity). The individual peptide-MHC complexes were produced by UV-ligand exchange, where a UV-sensitive peptide is cleaved upon UV-irradiation, and exchanged with the peptide of interest as analyzed. Only peptide candidates that can effectively bind and stabilize the peptide-receptive MHC molecules prevent dissociation of the MHC complexes. To determine the yield of the exchange reaction, an ELISA was performed based on the detection of the light chain (β2m) of stabilized MHC complexes. The assay was performed as generally described in Rodenko et al. (Rodenko et al., 2006).
96 well MAXISorp plates (NUNC) were coated over night with 2 ug/ml streptavidin in PBS at room temperature, washed 4× and blocked for 1h at 37° C. in 2% BSA containing blocking buffer. […] Peptide-MHC monomers of the UV-exchange reaction were diluted 100 fold in blocking buffer. Samples were incubated for 1h at 37° C., washed four times, incubated with 2 ug/ml HRP conjugated anti-β2m for 1h at 37° C., washed again and detected with TMB solution that is stopped with […]. Absorption was measured at 450 nm. Candidate peptides that show a high exchange yield (preferably higher than 50%, most preferred higher than 75%) are generally preferred for a generation and production of antibodies or fragments thereof, and/or T cell receptors or fragments thereof, as they show sufficient avidity to the MHC molecules and prevent dissociation of the MHC complexes.

| Peptide exchange | Substance |
| --- | --- |
| ″+++″ (≧50% = +++) | 163 (ALDEMGDLLQL; listed as Homo sapiens) [compound 163] |
| ″+++″ (≧50% = +++) | 164 (ALLPQPKNLTV; listed as Homo sapiens) [compound 164] |
| ″+++″ (≧50% = +++) | 165 (SLLDEIRAV; listed as Homo sapiens) [compound 165] |
| ″+++″ (≧50% = +++) | 167 (KVLEVTEEFGV; listed as Homo sapiens) [compound 167] |
| ″++++″ (≧75% = ++++) | 168 (KILDADIQL; listed as Homo sapiens) [compound 168] |
| ″+++″ (≧50% = +++) | 169 (NLPEYLPFV; listed as Homo sapiens) [compound 169] |
| ″+++″ (≧50% = +++) | 170 (RLQETLSAA; listed as Homo sapiens) [compound 170] |
| ″+++″ (≧50% = +++) | 171 (LLLPLQILL; listed as Homo sapiens) [compound 171] |
| ″++″ (≧20% = ++) | 172 (VLYSYTIITV; listed as Homo sapiens) [compound 172] |
| ″+++″ (≧50% = +++) | 173 (LLDSASAGLYL; listed as Homo sapiens) [compound 173] |
| ″+++″ (≧50% = +++) | 174 (ALAQYLITA; listed as Homo sapiens) [compound 174] |
| ″+++″ (≧50% = +++) | 175 (YLFENISQL; listed as Homo sapiens) [compound 175] |
| ″++″ (≧20% = ++) | 176 (YLMEGSYNKVFL; listed as Homo sapiens) [compound 176] |
| ″++++″ (≧75% = ++++) | 177 (YLLPEEYTSTL; listed as Homo sapiens) [compound 177] |
| ″++++″ (≧75% = ++++) | 178 (ALTEIAFVV; listed as Homo sapiens) [compound 178] |
| ″+++″ (≧50% = +++) | 179 (KVLNELYTV; listed as Homo sapiens) [compound 179] |
| ″++″ (≧20% = ++) | 180 (FQIDPHSGLVTV; listed as Homo sapiens) [compound 180] |
| ″+++″ (≧50% = +++) | 181 (LLWAGTAFQV; listed as Homo sapiens) [compound 181] |
| ″+++″ (≧50% = +++) | 182 (MLLEAPGIFL; listed as Homo sapiens) [compound 182] |
| ″+++″ (≧50% = +++) | 183 (FGLDLVTEL; listed as Homo sapiens) [compound 183] |

| Peptide exchange | Substance |
| --- | --- |
| ″+++″ (≧50% = +++) | 184 (YLMDINGKMWL; listed as Homo sapiens) [compound 184] |
| ″++″ (≧20% = ++) | 185 (FLIDDKGYTL; listed as Homo sapiens) [compound 185] |
| ″++″ (≧20% = ++) | 186 (TLFFQQNAL; listed as Homo sapiens) [compound 186] |
| ″+++″ (≧50% = +++) | 187 (RQISIRGIVGV; listed as Homo sapiens) [compound 187] |
| ″+++″ (≧50% = +++) | 188 (GLFPVTPEAV; listed as Homo sapiens) [compound 188] |
| ″+++″ (≧50% = +++) | 189 (ALQRKLPYV; listed as Homo sapiens) [compound 189] |
| ″+++″ (≧50% = +++) | 190 (FLSSLTETI; listed as Homo sapiens) [compound 190] |
| ″+++″ (≧50% = +++) | 192 (KMLDGASFTL; listed as Homo sapiens) [compound 192] |
| ″+++″ (≧50% = +++) | 193 (QLLDADGFLNV; listed as Homo sapiens) [compound 193] |
| ″+++″ (≧50% = +++) | 194 (ALPLFVITV; listed as Homo sapiens) [compound 194] |
| ″+++″ (≧50% = +++) | 195 (GLFADLLPRL; listed as Homo sapiens) [compound 195] |
| ″++++″ (≧75% = ++++) | 196 (YLYSVEIKL; listed as Homo sapiens) [compound 196] |
| ″++″ (≧20% = ++) | 197 (ALGPEGGRV; listed as Homo sapiens) [compound 197] |
| ″+++″ (≧50% = +++) | 200 (LLFGSVQEV; listed as Homo sapiens) [compound 200] |
| ″+++″ (≧50% = +++) | 201 (RLVDYLEGI; listed as Homo sapiens) [compound 201] |
| ″+++″ (≧50% = +++) | 202 (ALLDQQGSRWTL; listed as Homo sapiens) [compound 202] |
| ″++″ (≧20% = ++) | 204 (KIAENVEEV; listed as Homo sapiens) [compound 204] |
| ″+++″ (≧50% = +++) | 205 (SLYPGTETMGL; listed as Homo sapiens) [compound 205] |
| ″+++″ (≧50% = +++) | 206 (VLQEGKLQKLAQL; listed as Homo sapiens) [compound 206] |
| ″++″ (≧20% = ++) | 207 (GLTSTNAEV; listed as Homo sapiens) [compound 207] |

| Peptide exchange | Substance |
| --- | --- |
| ″+++″ (≧50% = +++) | 208 (KISPVTFSV; listed as Homo sapiens) [compound 208] |
| ″++″ (≧20% = ++) | 209 (KLIESKHEV; listed as Homo sapiens) [compound 209] |
| ″++″ (≧20% = ++) | 210 (LLLNAVLTV; listed as Homo sapiens) [compound 210] |
| ″++″ (≧20% = ++) | 211 (LLWPGAALL; listed as Homo sapiens) [compound 211] |
| ″++″ (≧20% = ++) | 212 (ALWDQDNLSV; listed as Homo sapiens) [compound 212] |
| ″+++″ (≧50% = +++) | 214 (FLLDLDPLLL; listed as Homo sapiens) [compound 214] |
| ″+++″ (≧50% = +++) | 216 (NLWEDPYYL; listed as Homo sapiens) [compound 216] |
| ″++″ (≧20% = ++) | 217 (ALIHPVSTV; listed as Homo sapiens) [compound 217] |
| ″++″ (≧20% = ++) | 218 (SALEELVNV; listed as Homo sapiens) [compound 218] |
| ″+++″ (≧50% = +++) | 219 (KLSDIGITV; listed as Homo sapiens) [compound 219] |
| ″++″ (≧20% = ++) | 220 (LLQKFVPEI; listed as Homo sapiens) [compound 220] |
| ″++″ (≧20% = ++) | 221 (ALYEEGLLL; listed as Homo sapiens) [compound 221] |
| ″++″ (≧20% = ++) | 222 (NLIENVQRL; listed as Homo sapiens) [compound 222] |
| ″+++″ (≧50% = +++) | 223 (ALLENIALYL; listed as Homo sapiens) [compound 223] |
| ″+++″ (≧50% = +++) | 224 (TLIDAQWVL; listed as Homo sapiens) [compound 224] |
| ″+++″ (≧50% = +++) | 225 (SLLKVLPAL; listed as Homo sapiens) [compound 225] |
| ″++″ (≧20% = ++) | 226 (MLYVVPIYL; listed as Homo sapiens) [compound 226] |
| ″++″ (≧20% = ++) | 227 (ALMNTLLYL; listed as Homo sapiens) [compound 227] |
